# Test results taken from the DeepSol protein solubility set.
# Assay: soluble on expression in E. coli; label from the status in PepcDB or PDB records
row,Sequence,soluble on expression in E. coli
1,SQKLADFKLPQFFNYPPYFTLQPVRDTREKQIQLWKELILDYCKSQKIFLIGVEEDFPLFSNSAIDRSLSHEARETFLSAIVGEGRAEWLDKGHRKCLILWHRIQDWADIVLQFVRDNGLEDSVMTVEEIRSGTESLGTELQGIDRTILMRALKLLENKGKLALFKGTSADDEGVKFSV,soluble
2,SRLFDEVVKKELDEAALKGVILTDGELKPEEFSMHIAEQLRAGGPFGQAFPEPIFDGEFKVLHQKLVGEKHLKLMLEPLYKGHPTNVMIDGIAFNVDLRRWPDASVKTVRLAYKLDVNEFRGNQSLQLMIDHIEAK,not soluble
3,SRLITHNMLSCNIKGVTSGFPLRIEAGNVIEKEVDFNPDFIRHMFAKIEWKALVEGARSMGYAELPEESPDAAVLKSDEPFLKKLHHALLELHLEEGALVCPETGRKFPVNKGIPNMLLHEDEV,soluble
4,SRRRPLSCDAASQAGSNYPRCWNCGGPWGPGREDRFFCPQCRALQAPDPTRDYFSLMDCNRSFRVDTAKLQHRYQQLQRLVHPDFFSQRSQTEKDFSEKHSTLVNDAYKTLLAPLSRGLYLLKLHGIEIPERTDYEMDRQFLIEIMEINEKLAEAESEAAMKEIESIVKAKQKEFTDNVSSAFEQDDFEEAKEILTKMRYFSNIEEKIKLKKIPL,soluble
5,SSPSSPADWAKKLTDAVLRQKAGETLTAADRDFSNADFRNITFSKILPPSFMERDGDIIKGFNFSNSKFTYSDISHLHFDECRFTYSTLSDVVCSNTKFSNSDMNEVFLQYSITTQQQPSFIDTTLKNTLIRHKANLSGVILNEPDNSSPPSVSGGGNFIRLGDIWLQMPLLWTENAVDGFLNHEHNNGKSILMTIDSLPDKYSQEKVQAMEDLVKSLRGGRLTEACIRPVESSLVSVLAHPPYTQSALISEWLGPVQERFFAHQCQTYNDVPLPAPDTYYQQRILPVLLDSFDRNSAAMTTHSGLFNQVILHCMTGVDCTDGTRQKAAALYEQYLAHPAVSPHIHNGLFGNYDGSPDWTTRAADNFLLLSSQDSDTAMMLSTDTLLTMLNPTPDTAWDNFYLLRAGENVSTAQISPVELFRHDFPVFLAAFNQQATQRRFGELIDIILSTEEHGELNQQFLAATNQKHSTVKLIDDASVSRLATIFDPLLPEGKLSPAHYQHILSAYHLTDATPQKQAETLFCLSTAFARYSSSAIFGTEHDSPPALRGYAEALMQKAWELSPAIFPSSEQFTEWSDRFHGLHGAFTCTSVVADSMQRHARKYFPSVLSSILPLAWA,soluble
6,SSQQIYGVKYGNVTFHVPSNQPLKEVLWKKQKDKVAELENSEFRAFSSFKNRVYLDTKSGSLTIYNLTSSDEDEYEMESPNITDSMKFFLYVGES,soluble
7,SSRSGTDPQQRQQASEADAAAATFRANDHQHIRYNPLQDEWVLVSAHRMKRPWQGQVEPQLLKTVPRHDPLNPLCPGAIRANGEVNPQYDSTFLFDNDFPALQPDAPSPGPSDHPLFQAKSARGVCKVMCFHPWSDVTLPLMSVPEIRAVVDAWASVTEELGAQYPWVQIFENKGAMMGCSNPHPHCQVWASSFLPDIAQREERSQQAYKSQHGEPLLMEYSRQELLRKERLVLTSEHWLVLVPFWATWPYQTLLLPRRHVRRLPELTPAERDDLASIMKKLLTKYDNLFETSFPYSMGWHGAPTGSEAGANWDHWQLHAHYYPPLLRSATVRKFMVGYEMLAQAQRDLTPEQAAERLRALPEVHYHLGQKDRETATIA,not soluble
8,SSVLRSMDKLPDLNRATVLLVSTEDALLQQLAESMLKDDCASELRVHLANSLPLPSNVNRPRIDLIVFVINLHSKYSLQKVEEFLQHVDSSFFLGKVCFLVTGAGQESHCSVHQNTVIKLAHTYRSPLFLCDLQKVESFRAAMARRLVRILQICAGHVPGVSALNLMSLLRSPENPPSKEL,soluble
9,STKTNVVEVLNKQVANWNVLYVKLHNYHWYVTGPHFFTLHEKFEEFYNEAGTYIDELAERILALEGKPLATMKEYLATSSVNEGTSKESAEEMVQTLVNDYSALIQELKEGMEVAGEAGDATSADMLLAIHTTLEQHVWMLSAFLK,soluble
10,STRPVGGTEYSWCRAIDGGTGIAVIALLLSRTPKLQNLQNTLDKLQIYHPTLRSNIRFDASANSFSFVVTSAADSHVEIHPFDSVSTAQIIRDSDDPCADPHRIILEHEMNKNTWINPHRWIKSESRVFIVSLYDLTDDGEQRILTFRLNTAAVDRTAAVTLLREFMKETAADGFGNGPVVAATETAVGLGKAIEELIPSGKGDKPFWARGIDVLGYSLNAFRFSNLNFVDAENSNRRSQLVRLKLDRDQTLKLVAGCKARGLKLWAALASSALIAAYSSKNLPPYQGEKYAVVTLSDCRSILEPPLTSNDFGFYHAGILHTHDLTGEEKLWDLAKRCYDSFTSSKNSNKQFTDMSDLNFLMCKAIENPNLTPSSSLRTAFISIFEDPVIDESPEPELASLGVQDYIGCASIHGVGPSVAVFDALRDGKLDCAFVYPSPLHSREQMDGLIQHMKTILLEGSASSF,soluble
11,STSTFNPRECKLSKQEGQNYGFFLRIEKDTEGHLVRVVEKCSPAEKAGLQDGDRVLRINGVFVDKEEHMQVVDLVRKSGNSVTLLVLDGDSYEKAVKTRVDLKELGQSQKEQGLSDNILSPVMNGGVQTWTQPRLCYLVKEGGSYGFSLKTVQGKKGVYMTDITPQGVAMRAGVLADDHLIEVNGENVEDASHEEVVEKVKKSGSRVMFLLVDKETDKRHVEQKIQFKRETASLKLLPHQPRIVEMKKGSNGYGFYLRAGSEQKGQIIKDIDSGSPAEEAGLKNNDLVVAVNGESVETLDHDSVVEMIRKGGDQTSLLVVDKETDNMYRLAHFSPFLYYQSQELPNGSVKEAPAPTPTSLEVSSPPDTTEEVDHKPKLCRLAKGENGYGFHLNAIRGLPGSFIKEVQKGGPADLAGLEDEDVIIEVNGVNVLDEPYEKVVDRIQSSGKNVTLLVCGKKAYDYFQAKKIPIVSSLADPLDTPPDSKEGIVVESNHDSHMAKERAHSTASHSSSNSEDTEM,soluble
12,STWTPRNRSEDEEEDENIDLEKNDDDEPNKPTDKGDSTDTEADHKLINPGEIPCDRFKDETHSKDLDPPLTDSELKEGEERTDLLAEQAKPTTSSPSVLQRGSDLITQEKPSEPGHAASTGNSNVTSVIHSPPSAPKPKLWSLAEIATSSDRCKGSSEASQAAGLSQSTVIASAASPTRSSPQCPLPNNTVLSRPIYYTSPFYPGYTNYSTFGHLHSSHGTNTSSTAHFNGLSQTVLNRAEALVRESKVRSQTQVDLCKDSPYELKKGMSNI,not soluble
13,SVAADSAATESLGRIGSLSQVSGVLGCQWGDEGKGKLVDILAQHFDIVARCQGGANAGHTIYNSEGKKFALHLVPSGILNEDTTCVIGNGVVVHLPGLFKEIDGLESNGVSCKGRILVSDRAHLLFDFHQEVDGLRESELAKSFIGTTKRGIGPAYSSKVIRNGIRVGDLRHMDTLPQKLDLLLSDAAARFQGFKYTPEMLREEVEAYKRYADRLEPYITDTVHFINDSISQKKKVLVEGGQATMLDIDFGTYPFVTSSSPSAGGICTGLGIAPSVVGDLIGVVKAYTTRVGSGPFPTENLGTGGDLLRLAGQEFGTTTGRPRRCGWLDIVALKFSCQINGFASLNLTKLDVLSDLNEIQLGVAYKRSDGTPVKSFPGDLRLLEELHVEYEVLPGWKSDISSVRNYSDLPKAAQQYVERIEELVGVPIHYIGIGPGRDALIYK,soluble
14,SWKFSRYVRTQMQELEPWQLKQALKTHQGVLQATYEGLVAINSEGSLYLINDSARAMLNYHQELGNVFTDGIDNPESFSLKGDDYINGLIRVNGKNLVMNRVTLRTSTGEPYGAVFSLRDQNEMHVLSEKISQVTQYMENMRVARHEYQNKLSTISGLLQMGAYDKALSVCLSQAKASQSQLDSLHALNSRPALSALILAKASKANELGVALSIDCQSDLSALSRRLSEEQLCGLIGNLAQNALEAVKGQENGHVHIGISESACEYTIQVSNNGPLLESEFDVLCELGFTTKQNKADHGVGMYLVRSIVEQGNGHMELDSDEQETAFTIYFPKELG,not soluble
15,SWKRNKFRLTYVAEAPDLTQGLSNVHKKRVSAARLLSRQNLQSPKSSRSTIFVRLHTNGNQELQYQPGDHLGVFPGNHEDLVNALIERLEDAPPANHVVKVEMLEERNTALGVISNWKDESRLPPCTIFQAFKYYLDITTPPTPLQLQQFASLATNEKEKQRLLVLSKGLQEYEEWKWGKNPTMVEVLEEFPSIQMPATLLLTQLSLLQPRYYSISSSPDMYPDEVHLTVAIVSYHTRDGEGPVHHGVCSSWLNRIQADDVVPCFVRGAPSFHLPRNPQVPCILVGPGTGIAPFRSFWQQRQFDIQHKGMNPCPMVLVFGCRQSKIDHIYREETLQAKNKGVFRELYTAYSREPDRPKKYVQDVLQEQLAESVYRALKEQGGHIYVCGDVTMAADVLKAIQRIMTQQGKLSEEDAGVFISRLRDDNRYHEDIFGV,soluble
16,SWQTYVDTNLVGTGAVTQAAILGLDGNTWATSAGFAVTPAQGQTLASAFNNADPIRASGFDLAGVHYVTLRADDRSIYGKKGSAGVITVKTSKSILVGVYNEKIQPGTAANVVEKLADYLIGQGF,soluble
17,TALSVLDLVMIGEGKTFADAIEESRQLARHVEQQHYSRYWIAEHHDMPGIGSAATSLVINEIANATRHIRVGAGGIMLPNHAPLVVAEQFGTLNTLHPGRIDLGLGRAPGTSGPTVRALRGAAPERDFGQDIAELRDYLADNGKRRVRGVPGAHDVPVWILGSSLFGADLAAKLGLPYAFASHFAPRYLLQAIAHYRANFQPSAQLAKPYVMVGMNLFAAASDAEADYLASSHRKWMLDLHVGRFGLLPKPQEGYLERLPDHERAVLDQVMACSVAGGPERVREGLRSLIEQTGADELMIDCRIHDPLARQRSHAYAAQ,not soluble
18,TDAQKRRRAVGHALAYAGYAEIIPSPFMDPEVFDVWGLAADDERRKTVSVLNPLEAERNVLSTSLLPSMLDAVKRNVARGHNDFSLFGLQQVAFEHGSGVSPMPSVASRPEESVVAELVDSLPNQPLHVATVGTGNIEFEGPWGKGRAYTFADAIESARAVARAAGVTLELANADALPWHPGRCAALLIDGTPVGYAGELHPQILEKAGLPARTCAMELDLSALP,not soluble
19,TDQAAFDTNIVTLTRFVMEEGRKARGTGEMTQLLNSLCTAVKAISTAVRKAGIAHLWGIAGSTNVTGDQVKKLDVLSNDLVINVLKSSFATCVLVSEEDKNAIIVEPEKRGKYVVCFDPLDGSSNIDCLVSIGTIFGIYRKNSTDEPSEKDALQPGRNLVAAGYALYGSATMLVLAMVNGVNCFMLDPAIGEFILVDRDVKIKKKGSIYSINEGYAKEFDPAITEYIQRKKFPPDNSAPYGARYVGSMVADVHRTLVYGGIFMYPANKKSPKGKLRLLYECNPMAYVMEKAGGLATTGKEAVLDIVPTDIHQRAPIILGSPEDVTELLEIYQKHAAK,soluble
20,TGILLANLGTPDAPTPEAVKRYLKQFLSDRRVVDTSRLLWWPLLRGVILPLRSPRVAKLYASVWMEDGSPLMVYSRQQQQALAQRLPDTPVALGMSYGSPSLESSVDELLAEHVDHIVVLPLYPQFSCSTVGAVWDELARILARKRSIPGISFIRDYADNHDYINALANSVRASFAKHGEPDLLLLSYHGIPQRYADEGDDYPQRCRTTTRELASALGMVPEKVMMTFQSRFGREPWLMPYTDETLKMLGEKGVGHIQVMCPGFAADCLETLEEIAEQNREVFLGAGGKKYEYIPALNATPEHIEMMANLV,not soluble
21,TGQIGTKGTVLFCNPTETEQYLKCNVEMFVQGASSANDFKKGYTFDLYNSNGEELGVKFGDMISSSSFHLKAFYRDPTHTRDQAGYRFWKSLAETLDYPYCKINNSVYAQSTTRSDKAEFTFDAKYYPHGFPVEIYLNDTFHGLYTLRLKKTRENYTLNNADLNHIFLDNAEYRARLNTSFNYAQWEIKSPKMKGYSDQGPIPATFPTVQAAIDNLFNFTKGLSANYANHATVLNLPHWVLFYILAELTGHWDIDGNNYNIFTWDGVHWSILPYDMDLTLNWYRNSGATQTGFLINVDIWQTFRTVYSNEIKAMWTKFRNEKSLTTEKVVNTYRNVAKDIPREVYVADKAKWGLATDFTGNDYPNIEQIYRYITARIAYL,not soluble
